From PMC12140320, “MeCP2 Lactylation Protects against Ischemic Brain Injury by Transcriptionally Regulating Neuronal Apoptosis” come the findings set out here.

This data set concerns the target MeCP2 WT (human) (Homo sapiens, UniProt P51608 1-486). The data set is described as follows: EMSA; 50-100 nM protein; EMSA: 10 mM HEPES pH 7.6, 50 mM KCl, 1 mM EDTA, 0.05% Triton X-100, 5% glycerol, 1 mM DTT; 50-100 nM protein, 2 nM biotin probe; room temperature 30 min; 6% native PAGE, 0.5x TBE, 4 C. Particulars: protein: recombinant; (Ni resin); label: biotin; blunt. A general note: Mobility shift assays separate free from complexed probe on a gel.

MeCP2 WT (human), sequence (P51608 whole entry): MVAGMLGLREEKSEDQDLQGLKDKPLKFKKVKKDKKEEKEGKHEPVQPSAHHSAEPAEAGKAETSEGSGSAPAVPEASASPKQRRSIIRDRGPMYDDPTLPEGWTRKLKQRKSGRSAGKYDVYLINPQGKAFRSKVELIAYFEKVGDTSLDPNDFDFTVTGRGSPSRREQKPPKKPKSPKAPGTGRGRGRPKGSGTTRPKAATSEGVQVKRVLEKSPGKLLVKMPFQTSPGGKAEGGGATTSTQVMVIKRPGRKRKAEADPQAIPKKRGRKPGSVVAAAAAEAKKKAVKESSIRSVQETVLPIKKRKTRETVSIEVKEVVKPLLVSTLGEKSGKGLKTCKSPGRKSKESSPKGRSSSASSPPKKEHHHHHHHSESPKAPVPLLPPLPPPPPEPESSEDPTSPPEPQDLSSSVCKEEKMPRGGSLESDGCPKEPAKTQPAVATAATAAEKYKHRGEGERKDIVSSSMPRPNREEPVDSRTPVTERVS

B1: human-Pla2g6 mCpG probe (dsDNA)
DNA 1: GCGCATGCGCCCTCCCGCGCCCCTCCCC
DNA 2: GGGGAGGGGCGCGGGAGGGCGCATGCGC
modifications: 5-methyl-dC at CpG, both strands; printed sequence identical to human-Pdcd4 probe (possible error in paper)
As for B1, the binding result was “binds”.

B2: human-Pdcd4 mCpG probe (dsDNA)
DNA 1: GCGCATGCGCCCTCCCGCGCCCCTCCCC
DNA 2: GGGGAGGGGCGCGGGAGGGCGCATGCGC
modifications: 5-methyl-dC at CpG, both strands; printed '(5-Methyl dC)CG' read as mCG to match the unmethylated probe
With B2, the binding result is recorded as “binds”.
